This note sets out measurements from IntAct's records for PubMed 15611164.

B1: Ankyrin repeat-containing protein YAR1 (Saccharomyces cerevisiae), P46683 (parent)
chain: MGLHSEPLDQEDQDTIILDARAGDLDSLKDIFTTLVSPELLSTCKESESDSTALHMAAANGHIETVRYILETVSRANSAEDLKAFVNEVNKTGNTALHWASLNGKLDVVKLLCDEYEADPFIRNKFGHDAIFEAENSGKEEVETYFLKKYDVEPEDDEEDTQTEGKNSVQITKGTEIEQVTKEATEALREETEKLNINKD
partner: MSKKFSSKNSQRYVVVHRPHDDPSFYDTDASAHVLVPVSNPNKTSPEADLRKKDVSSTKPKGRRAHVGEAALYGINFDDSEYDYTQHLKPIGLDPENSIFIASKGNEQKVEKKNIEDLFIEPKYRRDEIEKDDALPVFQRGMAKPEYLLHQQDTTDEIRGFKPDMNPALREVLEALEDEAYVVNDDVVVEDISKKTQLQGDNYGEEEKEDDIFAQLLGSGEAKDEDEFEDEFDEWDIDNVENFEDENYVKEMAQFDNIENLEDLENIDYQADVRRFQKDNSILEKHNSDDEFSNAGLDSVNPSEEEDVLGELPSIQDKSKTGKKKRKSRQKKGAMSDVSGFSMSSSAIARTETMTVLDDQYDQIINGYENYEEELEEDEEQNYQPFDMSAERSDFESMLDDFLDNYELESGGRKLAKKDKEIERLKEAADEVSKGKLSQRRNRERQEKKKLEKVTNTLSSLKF

Variants of B1 are the subject of the test. Particulars: with ltv1_yeast LTV1, P34078.
Consider MGLHSEPLDQEDQDTIILDARAGDLDSLKDIFTTLVSPELLSTCKESESDSTALHMAAANGHIETVRYILETVSRANSAEDLKAFVNEVNATGNTALHWASLNGKLDVVKLLCDEYEADPFIRNKFGHDAIFEAENSGKEEVETYFLKKYDVEPEDDEEDTQTEGKNSVQITKGTEIEQVTKEATEALREETEKLNINKD [K91A], for which the “effect of a mutation on the interaction” value is “decreasing interaction”. For MGLHSEPLDQEDQDTIILDARAGDLDSLKDIFTTLVSPELLSTCKESESDSTALHMAAANGHIETVRYILETVSRANSAEDLKAFVNEVNKTGNTALHWASLNGKLDVVKLLCDEYEADPFIRNAFGHDAIFEAENSGKEEVETYFLKKYDVEPEDDEEDTQTEGKNSVQITKGTEIEQVTKEATEALREETEKLNINKD [K125A] the value was “decreasing interaction”.
